Assay results: paper PMC7755911 (2020)

Legend:
[1] = molecular target: T1, Biotinylated SARS-CoV-2 S protein RBD with a C-terminal AviTag (SARS-CoV-2, UniProt P0DTC2 319-541); assay: BLI
[2] = molecular target: T1, Biotinylated SARS-CoV-2 S protein RBD …; assay: BLI; remark: listed apart in the source

Binder | koff [1] [s⁻¹] | Kd [2] [nM]
NIH-CoVnb-103 (VHH) VHH: DVQLQESGGGLVQPGGSLRLSCAASGLTLDYYTIGWFRQAPGKEREGVSCISSSDDSTYYADSVKGRFTISRDNAKNTVYLQMNSLKPEDTAVYYCATAPGTYYKGSYYPMCHYYGMDYWGKGTQVTVSS | 0.00286 | 9.43
NIH-CoVnb-113 (VHH) VHH: DVQLQESGGGLVQPGGSLRLSCAASGLTLDYYAIGWFRQAPGKEREGVSCISSSDGSTYYADSVKGRFTTSRDNAKNTVYLQMNSLKPEDTAVYYCAAVPSTYYSGTYYYTCHPGGMDYWGKGTLVTVSS | 0.000804 | 8.19
NIH-CoVnb-109 (VHH) VHH: DVQLQESGGGLVQSGGSLRLSCAASGFTLDYYAIGWFRQAPGKEREGVSCITNSDGSTYYADSVKGRFTTSRDNAKNTVYLQMNSLKPEDTAVYYCASFPSTYYSGSYYYTCHPGGMDYWGKGTQVTVSS | 0.00188 | 58.5
NIH-CoVnb-108 (VHH) VHH: DVQLQESGGGLVQPGGSLRLSCAASGFTLDYYAIGWFRQAPGKEREGVSCISNSGGSTYYADSVKGRFTTSRDNAKNTVYLQMNSLKPEDTAVYYCAAVPSTYYSGSYYYTCHPGGMDYWGKGTQVTVSS | 0.00109 | 26.6
